Laboratory results from publication PMC8596989.

Columns and labels:
[1] = target: Encapsulin from Mycobacterium smegmatis with Streptavidin-tag (^StrepEncSM) (Mycobacterium smegmatis) (UniProt A0R4H0); experiment: in-gel fluorescence against a standard curve
[2] = target: Encapsulin from Mycobacterium smegmatis with Streptavidin-tag (^StrepEncSM) (Mycobacterium smegmatis) (UniProt A0R4H0); experiment: FRET or BRET

Work on “HaloTag construct carrying an encapsulin localization sequence (HaloTag-ELS)” yielded a labeled cargo proteins per capsid (labeled cargo proteins per capsid) [1] of 6.6 and a fluorophore binding sites per vesicle (fluorophore binding sites per vesicle) [2] of over 3.
